How the values were obtained:
Assay in all cases: alanine scan, high-throughput flow cytometry
[1] = biological target: T1, GRP78 alanine scanning variant R279A (human, UniProt P11021 19-654)
T1 construct: Member of the alanine scanning library of GRP78
Experimental: (§1) To characterize the binding properties of the antibodies described in Example 1 for GRP78, epitope mapping analysis was carried out by alanine scanning mutagenesis. An alanine scanning library of GRP78 was constructed. Each anti-GRP78 antibody was then screened for binding to each individual GRP78 variant, allowing identification of the target protein residues involved in antibody binding.
(§2) Binding of each test antibody to each GRP78 variant in the alanine scanning library was determined by high-throughput flow cytometry under high stringency conditions (e.g., increased pH, increased salinity, increased temperature and/or increased wash time). Also included in the experiment was a commercially-available monoclonal antibody, 1H11-1H7, which was verified to bind to the wildtype (WT) GRP78 on cells and thus determined to be a suitable positive control under these conditions (Thermo Fisher Scientific, Waltham, MA). Antibody binding to each of the GRP78 variants as measured by the fluorescence signal (raw fluorescence data minus the background), was normalized to its binding to the WT GRP78. For each GRP78 variant, such normalized binding to the test antibodies was plotted relative to that to the control antibody.

[2] = biological target: T2, GRP78 alanine scanning variant R261A (human, UniProt P11021 19-654)
T2 construct: Member of the alanine scanning library of GRP78
Experimental: as §1, §2

[3] = biological target: T3, GRP78 alanine scanning variant E329A (human, UniProt P11021 19-654)
T3 construct: Member of the alanine scanning library of GRP78
Experimental: as §1, §2

[4] = biological target: T4, GRP78 alanine scanning variant H265A (human, UniProt P11021 19-654)
T4 construct: Member of the alanine scanning library of GRP78
Experimental: as §1, §2

T2 sequence (P11021 19-654 R261A limits assumed): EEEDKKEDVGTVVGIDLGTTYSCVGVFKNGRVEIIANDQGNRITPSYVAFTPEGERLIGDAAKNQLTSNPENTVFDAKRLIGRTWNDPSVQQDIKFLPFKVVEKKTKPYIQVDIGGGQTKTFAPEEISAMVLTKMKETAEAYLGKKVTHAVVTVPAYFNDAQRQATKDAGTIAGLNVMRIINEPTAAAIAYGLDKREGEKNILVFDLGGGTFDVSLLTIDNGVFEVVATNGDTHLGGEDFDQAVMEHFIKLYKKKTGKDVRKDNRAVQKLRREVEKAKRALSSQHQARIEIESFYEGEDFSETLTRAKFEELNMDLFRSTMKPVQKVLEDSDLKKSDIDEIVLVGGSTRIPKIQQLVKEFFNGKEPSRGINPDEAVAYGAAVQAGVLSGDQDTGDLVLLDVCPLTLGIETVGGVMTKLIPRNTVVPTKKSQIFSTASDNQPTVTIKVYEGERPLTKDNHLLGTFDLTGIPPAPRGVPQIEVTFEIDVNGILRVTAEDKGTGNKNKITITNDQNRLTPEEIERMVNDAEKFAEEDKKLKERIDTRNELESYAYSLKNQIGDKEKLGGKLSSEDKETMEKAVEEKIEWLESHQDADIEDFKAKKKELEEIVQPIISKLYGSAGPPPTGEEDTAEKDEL
T4 sequence (P11021 19-654 H265A limits assumed): as the sequence (P11021 19-654 R261A limits assumed) above, with A243R, H247A counted along it
T3 sequence (P11021 19-654 E329A limits assumed): as the sequence (P11021 19-654 R261A limits assumed) above, with A243R, E311A counted along it
T1 sequence (P11021 19-654 R279A limits assumed): as the sequence (P11021 19-654 R261A limits assumed) above, with A243R, R261A counted along it

% binding normalized to WT GRP78 [1] [%] | % binding normalized to WT GRP78 [2] [%] | % binding normalized to WT GRP78 [3] [%] | % binding normalized to WT GRP78 [4] [%] | Binder
< 20 | < 20 | – | – | anti-GRP78 antibody clone F6 (antibody, IgG1, V domains shown, Fully human mAb formatted as full-length IgG1; also called F6 mAb) VH: QVQLQQSGPGLVKPPQTLSLTCAISGDSVSSNSAAWNWIRQSPSRGLEWLGRTYYRSKWYNDYAVSVKSRITINPDTSKNQFSLQLNSVTPEDTAVYYCARDPYYYDSSGYYYFDAFDIWGQGTMVTVSS VL: SYELTQPHSVSVAPGQTARITCGGDNIGSKSVHWYQQRPGQAPVLVVYDDSDRPSGIPERFSGSNSENTATLTISGVEAGDEADYYCQVWDSTSHHVVFGGGTKLTVL
– | < 20 | < 20 | < 20 | anti-GRP78 antibody clone B4 (antibody, IgG1, V domains shown, Fully human mAb formatted as full-length IgG1; also called B4 mAb) VH: QVRLQESGPGLVKPSQTLSLTCTVSGGSISSGGYYWSWIRQHPGKGLEWIGYIYYSGSTYYNPSLESRVTISVDTSKNQFSLKLSSVTAADTAVYYCARYSSIDAFEIWGQGTMVTVSS VL: SYVLTQPPSVSVAPGKTATITCGGDDIGSKSVHWYQQKPGQAPVLVVYDDGDRPSGIPERFSGSNSGNTATLAISRVEAGDEADYYCQVWDSSSDQYVFGSGTKLTVL
